In patent publication US20210347882A1 (Johns Hopkins, published 2021):
Positions count from the first letter of the chain named.

B1: Clone 1 rIgG (antibody, V domains shown)
VH: EVQLLESGGGLVQPGGSLRLSCAASGFTFSSYAMSWVRQAPGKGLEWVSSISQRGRKTLYADSVKGRFTISRDNSKNTLYLQMNSLRAEDTAVYYCAKGLRRFDYWGQGTLVTVSS
VL: DIQMTQSPSSLSASVGDRVTITCRASQSISSYLNWYQQKPGKAPKLLIYMASHLQSGVPSRFSGSGSGTDFTLTISSLQPEDFATYYCQQPRSTPLTFGQGTKVEIKR
notes: Fully human IgG1 converted from scFv, tested as supernatant of expressing cells; Possibly the same clone as Ab1
B2: Clone 18 rIgG (antibody, V domains shown)
VH: B1 VH with S50T, S52H, Q53K, R54T, R56S, K57P, L59Y, G99S, R101K, R102Y
VL: B1 VL with M50R, T94L, L96A
notes: Fully human IgG1 converted from scFv, tested as supernatant of expressing cells
B3: Clone 2 rIgG (antibody, V domains shown)
VH: B1 VH with S50T, S52T, Q53T, R54T, R56T, K57A, L59W, G99T, R101Q
VL: B1 VL with M50E, H53V, T94L, L96M
notes: as for B2
B4: Clone 13 rIgG (antibody, V domains shown)
VH: B1 VH with S52Y, Q53P, R54Q, R56L, K57R, L59Y, G99N, R101A, R102K
VL: B1 VL with M50R, H53T, S93A, T94L, L96G
notes: Fully human IgG1 converted from scFv, tested as supernatant of expressing cells; Possibly the same clone as Ab13

Molecular target: T1, human Resistin-Like Molecule Beta (human, UniProt Q9BQ08 24-111, limits assumed)
T1 construct: also called hRELMβ; RELMβ
T1 sequence (looked up): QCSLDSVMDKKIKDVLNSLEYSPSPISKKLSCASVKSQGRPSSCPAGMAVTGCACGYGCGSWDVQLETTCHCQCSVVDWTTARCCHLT
Experiment: QC ELISA, hRELMβ coated 0.5 µg/well, IgG supernatant, FITC-goat anti-human IgG
Procedure: (§1) As a result, 4 IgGs (Clones 1, 2, 13 and 18) bind to two targets positively. hRELMβ: 0.5 μg/well; hResistin: 5 μg/well; secondary antibody: FITC-goat anti-human IgG pAb.

Binding result, binds:
B1, B2, B3, B4

Molecular target: T2, human Resistin (human, UniProt Q9HD89 19-108)
T2 construct: The sandwich ELISA used the R&D kit standard; also called hResistin; huRes
T2 sequence (looked up): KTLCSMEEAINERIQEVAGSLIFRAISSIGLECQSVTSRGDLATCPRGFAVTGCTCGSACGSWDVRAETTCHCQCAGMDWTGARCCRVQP
Experiment: QC ELISA, hResistin coated 5 µg/well, IgG supernatant, FITC-goat anti-human IgG
Procedure: as §1

Binding result, binds:
B1, B2, B3, B4
